Values joined by “and” are separate entries in the source; they are usually repeats but may differ in a detail not shown here. Equal entries are not always repeated. Where two headings read alike, the source gives them in different places. Values belong to the binder of their own block, whether it stands above or below them.
What was measured:
[1] = biological target: FcRn (UniProt P55899 24-297; P61769 21-119, biotinylated (sites not given)); test: AlphaLISA FcRn binding assay
[2] = biological target: T1, FCGR1/CD64 (UniProt P12314 16-288, biotinylated (sites not given)); test: AlphaLISA FcγR1 binding assay
T1 chain: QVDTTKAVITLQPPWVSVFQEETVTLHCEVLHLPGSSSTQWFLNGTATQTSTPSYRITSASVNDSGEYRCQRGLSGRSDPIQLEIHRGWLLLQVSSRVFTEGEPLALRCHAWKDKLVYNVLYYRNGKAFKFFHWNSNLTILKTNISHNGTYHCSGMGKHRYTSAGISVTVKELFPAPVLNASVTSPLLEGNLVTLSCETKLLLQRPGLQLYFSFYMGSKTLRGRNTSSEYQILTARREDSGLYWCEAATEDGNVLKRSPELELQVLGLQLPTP

[3] = biological target: FCGR2A/CD32A (167R); test: AlphaLISA FcγR2a binding assay
[4] = biological target: FCGR2A/CD32A (167H); test: AlphaLISA FcγR2a binding assay
[5] = biological target: T2, FcRn receptor (biotinylated, AlphaLisa binding kit Perkin Elmer #AL3095C) (UniProt P55899 24-297; P61769 21-119, biotinylated (sites not given)); test: AlphaLISA FcRn binding assay
[6] = biological target: T3, immunoglobulin gamma Fc receptor 1 (FcγR1) (biotinylated, AlphaLisa binding kit Perkin Elmer #AL3081C) (UniProt P12314 16-288, biotinylated (sites not given)); test: AlphaLISA FcγR1 binding assay
T3 chain: T1 chain

[7] = biological target: T2, FcRn receptor (biotinylated, AlphaLisa …); test: AlphaLISA FcRn binding assay; remark: listed apart in the source
[8] = biological target: T3, immunoglobulin gamma Fc receptor 1 …; test: AlphaLISA FcγR1 binding assay

B2: Ab No. 420.4(YTE) (antibody)
chain 1: MGWSCIILFLVATATGVHSQLQLQESGPGLVKPSETLSLTCIVSGGSISSSGYYWGWIRQPPGKGLEWIGSIFYSGNTHYNPSLKSRVTIPVDTSKNQFSLKLSSVTAADSAVYYCARRDILTGPFDYWGQGTLVTVSSAASTKGPSVFPLAPCSRSTSESTAALGCLVKDYFPEPVTVSWNSGALTSGVHTFPAVLQSSGLYSLSSVVTVPSSSLGTKTYTCNVDHKPSNTKVDKRVESKYGPPCPSCPAPEFLGGPSVFLFPPKPKDTLYITREPEVTCVVVDVSQEDPEVQFNWYVDGVEVHNAKTKPREEQFNSTYRVVSVLTVLHQDWLNGKEYKCKVSNKGLPSSIEKTISKAKGQPREPQVYTLPPSQEEMTKNQVSLTCLVKGFYPSDIAVEWESNGQPENNYKTTPPVLDSDGSFFLYSRLTVDKSRWQEGNVFSCSVMHEALHNHYTQKSLSLSLGK
chain 2: not shown
- EC50 [5]: 0.486 nM and 0.0729 µg/mL

B3: Ab No. 420.4 (YTE) (antibody)
chain 1: B2 chain 1
chain 2: not shown
- EC50 [6]: 139 nM and 20.8 µg/mL

B7: Antibody No. 150.1 (antibody)
light: not shown
heavy: QVQLQESGPGLVKPSETLSLTCTVSGGSISSYYWSWIRQPPGKGLEWIGYIYYSGSTNYNPSLKSRVTISVDTSKSQFSLKLSSVTAADTAVYYCARDIPAFAFDIWGQGTMVIVSSASTKGPSVFPLAPSSKSTSGGTAALGCLVKDYFPEPVTVSWNSGALTSGVHTFPAVLQSSGLYSLSSVVTVPSSSLGTQTYICNVNHKPSNTKVDKKVEPKSCDKTHTCPPCPAPELLGGPSVFLFPPKPKDTLYITREPEVTCVVVDVSHEDPEVKFNWYVDGVEVHNAKTKPREEQYNSTYRVVSVLTVLHQDWLNGKEYKCKVSNKALPAPIEKTISKAKGQPREPQVYTLPPSRDELTKNQVSLTCLVKGFYPSDIAVEWESNGQPENNYKTTPPVLDSDGSFFLYSKLTVDKSRWQQGNVFSCSVMHEALHNHYTQKSLSLSPGK
- EC50 [7]: 0.142 µg/mL
- EC50 [8]: 5.8 nM and 0.868 µg/mL

Results, then the binder that gave them:

- EC50 [1]: 1.5 µg/mL
- EC50 [2]: 3.6 nM and 0.534 µg/mL
- EC50 [3]: 4.6 µg/mL
- EC50 [4]: 2.1 µg/mL
B1: VSTB174 (WT) (antibody)
chain 1: not shown
chain 2: DIQMTQSPSSLSASVGDRVTITCRASQSIDTRLNWYQQKPGKAPKLLIYSASSLQSGVPSRFSGSGSGTDFTLTISSLQPEDFATYYCQQSAYNPITFGQGTKVEIKRTVAAPSVFIFPPSDEQLKSGTASVVCLLNNFYPREAKVQWKVDNALQSGNSQESVTEQDSKDSTYSLSSTLTLSKADYEKHKVYACEVTHQGLSSPVTKSFNRGEC

- EC50 [6]: 14.7 nM and 2.2 µg/mL
B4: Ab No. 420.1 (YTE) (antibody)
chain 1: MGWSCIILFLVATATGVHSQLQLQESGPGLVKPSETLSLTCIVSGGSISSSGYYWGWIRQPPGKGLEWIGSIFYSGNTHYNPSLKSRVTIPVDTSKNQFSLKLSSVTAADSAVYYCARRDILTGPFDYWGQGTLVTVSSAASTKGPSVFPLAPSSKSTSGGTAALGCLVKDYFPEPVTVSWNSGALTSGVHTFPAVLQSSGLYSLSSVVTVPSSSLGTQTYICNVNHKPSNTKVDKKVEPKSCDKTHTCPPCPAPELLGGPSVFLFPPKPKDTLYITREPEVTCVVVDVSHEDPEVKFNWYVDGVEVHNAKTKPREEQYNSTYRVVSVLTVLHQDWLNGKEYKCKVSNKALPAPIEKTISKAKGQPREPQVYTLPPSRDELTKNQVSLTCLVKGFYPSDIAVEWESNGQPENNYKTTPPVLDSDGSFFLYSKLTVDKSRWQQGNVFSCSVMHEALHNHYTQKSLSLSPGK
chain 2: not shown

- EC50 [5]: 0.376 nM and 0.0565 µg/mL
B5: Ab No. 420.1(YTE) (antibody)
chain 1: B4 chain 1
chain 2: not shown

- EC50 [3]: 275 nM and 41.3 µg/mL
- EC50 [4]: 18.3 µg/mL and 122 nM
B6: Ab No. 150.1 (YTE) (antibody)
light: not shown
heavy: B7 heavy

Reference: patent US20240132593A1 (published 2024)
